# PMC4072508, “Genome-Wide Prediction and Validation of Peptides That Bind Human Prosurvival Bcl-2 Proteins” (PLoS Computational Biology, 2014)
# T1: Bcl-w, Q92843
# T1 chain: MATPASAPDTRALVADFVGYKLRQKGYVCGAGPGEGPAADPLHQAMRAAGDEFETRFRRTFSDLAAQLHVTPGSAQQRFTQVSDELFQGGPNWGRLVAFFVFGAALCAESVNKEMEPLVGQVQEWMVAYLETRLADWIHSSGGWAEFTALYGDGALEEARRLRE
# T2: Bfl-1, Q16548
# T2 chain: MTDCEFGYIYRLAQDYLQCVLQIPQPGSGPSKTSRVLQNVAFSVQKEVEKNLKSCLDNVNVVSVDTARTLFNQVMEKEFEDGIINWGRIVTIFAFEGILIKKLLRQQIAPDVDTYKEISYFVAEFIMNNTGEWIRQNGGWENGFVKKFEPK
# T3: Mcl-1, Q07820
# T3 chain: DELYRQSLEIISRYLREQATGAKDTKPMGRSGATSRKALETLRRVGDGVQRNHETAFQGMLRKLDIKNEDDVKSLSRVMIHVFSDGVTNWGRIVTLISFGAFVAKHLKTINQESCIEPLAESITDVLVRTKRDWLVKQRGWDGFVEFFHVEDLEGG
# T4: Bcl-2, P10415
# T4 chain: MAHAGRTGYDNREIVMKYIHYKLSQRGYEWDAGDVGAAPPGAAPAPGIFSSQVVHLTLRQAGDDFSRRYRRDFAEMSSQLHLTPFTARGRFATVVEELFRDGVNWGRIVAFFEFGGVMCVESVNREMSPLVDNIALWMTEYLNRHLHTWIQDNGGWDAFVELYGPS
# Target: Bcl-2, P10415
# Assay: peptide SPOT array, c-Myc-tagged receptor at 1 uM or 100 nM, anti-c-Myc-Cy3
row,Binder,SPOT signal as a fraction of Bim BH3's signal on the same receptor and array
1,TRELQELARKLQELADASENLLTENT [TXNDC11],0.01
2,NATHEEVVHLLRNAGDEVTITVEYLR [SNTG2],0.01
3,RYRHGAPAEQLRHLADMLTTKWATLQ [PLEKHH1],0.28
4,ATKRETAATFLKKVAKEFGFQNNGFS [NPLOC4],0.25

# Target: T1, Bcl-w, Q92843
# Assay: as above
row,Binder,SPOT signal as a fraction of Bim BH3's signal on the same receptor and array
1,TRELQELARKLQELADASENLLTENT [TXNDC11],0.27
2,NATHEEVVHLLRNAGDEVTITVEYLR [SNTG2],0.02
3,RYRHGAPAEQLRHLADMLTTKWATLQ [PLEKHH1],0.81
4,ATKRETAATFLKKVAKEFGFQNNGFS [NPLOC4],0.77

# Target: Bcl-xL, Q07817
# Sequence (Q07817 1-209): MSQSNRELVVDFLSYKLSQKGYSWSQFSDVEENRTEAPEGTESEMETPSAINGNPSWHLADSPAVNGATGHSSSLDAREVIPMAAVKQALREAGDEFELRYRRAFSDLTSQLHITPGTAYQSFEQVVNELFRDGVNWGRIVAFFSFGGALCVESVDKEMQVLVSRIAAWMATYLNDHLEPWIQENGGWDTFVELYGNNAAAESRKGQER
# Assay: as above
row,Binder,SPOT signal as a fraction of Bim BH3's signal on the same receptor and array
1,QRKHEGFERDLAALGDKVNSLGETAE [SPTAN1],0.12
2,FKAWGKFGGAFCRYADEMKEIQERQR [PURB],1.83
3,RVCPYYLSRNLKQQADIIFMPYNYLL [RTEL1],2.13
4,TRELQELARKLQELADASENLLTENT [TXNDC11],0.04
5,NATHEEVVHLLRNAGDEVTITVEYLR [SNTG2],0.04
6,RYRHGAPAEQLRHLADMLTTKWATLQ [PLEKHH1],1.44
7,ISSYMVLAPVFGYLGDRYNRKYLMCG [SPNS1],1.64
8,ADAIRPRCVELRHLCDDFINGNKKKW [MCF2L2],1.38
9,ATKRETAATFLKKVAKEFGFQNNGFS [NPLOC4],0.73

# Target: T2, Bfl-1, Q16548
# Assay: as above
row,Binder,SPOT signal as a fraction of Bim BH3's signal on the same receptor and array
1,QRKHEGFERDLAALGDKVNSLGETAE [SPTAN1],0.13
2,FKAWGKFGGAFCRYADEMKEIQERQR [PURB],1.05
3,RVCPYYLSRNLKQQADIIFMPYNYLL [RTEL1],0.72
4,TRELQELARKLQELADASENLLTENT [TXNDC11],0.01
5,NATHEEVVHLLRNAGDEVTITVEYLR [SNTG2],0.01
6,RYRHGAPAEQLRHLADMLTTKWATLQ [PLEKHH1],0.56
7,ISSYMVLAPVFGYLGDRYNRKYLMCG [SPNS1],1.2
8,ADAIRPRCVELRHLCDDFINGNKKKW [MCF2L2],0.29
9,ATKRETAATFLKKVAKEFGFQNNGFS [NPLOC4],0.41

# Target: T3, Mcl-1, Q07820
# Assay: as above
row,Binder,SPOT signal as a fraction of Bim BH3's signal on the same receptor and array
1,QRKHEGFERDLAALGDKVNSLGETAE [SPTAN1],0.27
2,FKAWGKFGGAFCRYADEMKEIQERQR [PURB],1.16
3,RVCPYYLSRNLKQQADIIFMPYNYLL [RTEL1],1.42
4,TRELQELARKLQELADASENLLTENT [TXNDC11],0.01
5,NATHEEVVHLLRNAGDEVTITVEYLR [SNTG2],0.09
6,RYRHGAPAEQLRHLADMLTTKWATLQ [PLEKHH1],0.41
7,ISSYMVLAPVFGYLGDRYNRKYLMCG [SPNS1],1.15
8,ADAIRPRCVELRHLCDDFINGNKKKW [MCF2L2],0.22
9,ATKRETAATFLKKVAKEFGFQNNGFS [NPLOC4],0.23

# Target: T4, Bcl-2, P10415
# Assay: fluorescence polarisation, direct titration of receptor into 10 nM labelled peptide
row,Binder,Kd [µM]
1,QRKHEGFERDLAALGDKVNSLGETAE [SPTAN1],> 3.04
2,FKAWGKFGGAFCRYADEMKEIQERQR [PURB],0.034
3,RVCPYYLSRNLKQQADIIFMPYNYLL [RTEL1],0.342
4,TRELQELARKLQELADASENLLTENT [TXNDC11],0.086
5,NATHEEVVHLLRNAGDEVTITVEYLR [SNTG2],> 3.04
6,RYRHGAPAEQLRHLADMLTTKWATLQ [PLEKHH1],1.5
7,ISSYMVLAPVFGYLGDRYNRKYLMCG [SPNS1],0.028
8,ADAIRPRCVELRHLCDDFINGNKKKW [MCF2L2],0.06
9,ATKRETAATFLKKVAKEFGFQNNGFS [NPLOC4],2.06

# Target: T1, Bcl-w, Q92843
# Assay: as above
row,Binder,Kd [µM]
1,QRKHEGFERDLAALGDKVNSLGETAE [SPTAN1],> 4.35
2,FKAWGKFGGAFCRYADEMKEIQERQR [PURB],> 1.8
3,RVCPYYLSRNLKQQADIIFMPYNYLL [RTEL1],> 100
4,TRELQELARKLQELADASENLLTENT [TXNDC11],0.249
5,NATHEEVVHLLRNAGDEVTITVEYLR [SNTG2],> 6.56
6,RYRHGAPAEQLRHLADMLTTKWATLQ [PLEKHH1],1.4
7,ISSYMVLAPVFGYLGDRYNRKYLMCG [SPNS1],0.871
8,ADAIRPRCVELRHLCDDFINGNKKKW [MCF2L2],1.12
9,ATKRETAATFLKKVAKEFGFQNNGFS [NPLOC4],> 4.5

# Target: Bcl-xL, Q07817
# Assay: as above
row,Binder,Kd [µM]
1,QRKHEGFERDLAALGDKVNSLGETAE [SPTAN1],> 7
2,FKAWGKFGGAFCRYADEMKEIQERQR [PURB],> 100
3,RVCPYYLSRNLKQQADIIFMPYNYLL [RTEL1],1.38
4,TRELQELARKLQELADASENLLTENT [TXNDC11],1.49
5,NATHEEVVHLLRNAGDEVTITVEYLR [SNTG2],> 4
6,RYRHGAPAEQLRHLADMLTTKWATLQ [PLEKHH1],0.65
7,ISSYMVLAPVFGYLGDRYNRKYLMCG [SPNS1],0.096
8,ADAIRPRCVELRHLCDDFINGNKKKW [MCF2L2],0.292
9,ATKRETAATFLKKVAKEFGFQNNGFS [NPLOC4],> 100

# Target: T2, Bfl-1, Q16548
# Assay: as above
row,Binder,Kd [µM]
1,QRKHEGFERDLAALGDKVNSLGETAE [SPTAN1],> 3.37
2,FKAWGKFGGAFCRYADEMKEIQERQR [PURB],> 4.67
3,RVCPYYLSRNLKQQADIIFMPYNYLL [RTEL1],> 4
4,TRELQELARKLQELADASENLLTENT [TXNDC11],> 10
5,NATHEEVVHLLRNAGDEVTITVEYLR [SNTG2],> 4.07
6,RYRHGAPAEQLRHLADMLTTKWATLQ [PLEKHH1],> 5.68
7,ISSYMVLAPVFGYLGDRYNRKYLMCG [SPNS1],0.278
8,ADAIRPRCVELRHLCDDFINGNKKKW [MCF2L2],> 3.37
9,ATKRETAATFLKKVAKEFGFQNNGFS [NPLOC4],> 4.67

# Target: T3, Mcl-1, Q07820
# Assay: as above
row,Binder,Kd [µM]
1,QRKHEGFERDLAALGDKVNSLGETAE [SPTAN1],3.85
2,FKAWGKFGGAFCRYADEMKEIQERQR [PURB],> 4
3,RVCPYYLSRNLKQQADIIFMPYNYLL [RTEL1],> 4
4,TRELQELARKLQELADASENLLTENT [TXNDC11],2.38
5,NATHEEVVHLLRNAGDEVTITVEYLR [SNTG2],0.022
6,RYRHGAPAEQLRHLADMLTTKWATLQ [PLEKHH1],0.977
7,ISSYMVLAPVFGYLGDRYNRKYLMCG [SPNS1],0.019
8,ADAIRPRCVELRHLCDDFINGNKKKW [MCF2L2],> 4
9,ATKRETAATFLKKVAKEFGFQNNGFS [NPLOC4],> 4
